Patent US20130203116, “EXPRESSION AND PURIFICATION OF FUSION PROTEIN WITH MULTIPLE MBP TAGS” (The Regents of the University of California 1111 Franklin …, published 2013)

How the values were obtained:
[1] = target: T1, BRCA2 (2XMBP-BRCA2, full length) (Homo sapiens, UniProt P51587 P51587:1-3418); experiment: EMSA; strongly preferred over dsDNA; 1 mM MgCl2, 2 mM CaCl2, 2 mM ATP, 37 C; details: tags: N-terminal 2xMBP with PreScission site, expressed in human 293T cells, amylose + HiTrap Q
[2] = target: T1, BRCA2 (2XMBP-BRCA2, full length); experiment: EMSA; strongly preferred over dsDNA; slight preference over ssDNA at high salt (0.5-1 M NaCl); 1 mM MgCl2, 2 mM CaCl2, 2 mM ATP, 37 C; details: tags: N-terminal 2xMBP with PreScission site; expressed in human 293T cells, amylose + HiTrap Q; label: 5'-32P on 167-mer (EMSA); 42 bp duplex with 125 nt 3' ssDNA overhang

T1 sequence (P51587 whole entry, one chain of several): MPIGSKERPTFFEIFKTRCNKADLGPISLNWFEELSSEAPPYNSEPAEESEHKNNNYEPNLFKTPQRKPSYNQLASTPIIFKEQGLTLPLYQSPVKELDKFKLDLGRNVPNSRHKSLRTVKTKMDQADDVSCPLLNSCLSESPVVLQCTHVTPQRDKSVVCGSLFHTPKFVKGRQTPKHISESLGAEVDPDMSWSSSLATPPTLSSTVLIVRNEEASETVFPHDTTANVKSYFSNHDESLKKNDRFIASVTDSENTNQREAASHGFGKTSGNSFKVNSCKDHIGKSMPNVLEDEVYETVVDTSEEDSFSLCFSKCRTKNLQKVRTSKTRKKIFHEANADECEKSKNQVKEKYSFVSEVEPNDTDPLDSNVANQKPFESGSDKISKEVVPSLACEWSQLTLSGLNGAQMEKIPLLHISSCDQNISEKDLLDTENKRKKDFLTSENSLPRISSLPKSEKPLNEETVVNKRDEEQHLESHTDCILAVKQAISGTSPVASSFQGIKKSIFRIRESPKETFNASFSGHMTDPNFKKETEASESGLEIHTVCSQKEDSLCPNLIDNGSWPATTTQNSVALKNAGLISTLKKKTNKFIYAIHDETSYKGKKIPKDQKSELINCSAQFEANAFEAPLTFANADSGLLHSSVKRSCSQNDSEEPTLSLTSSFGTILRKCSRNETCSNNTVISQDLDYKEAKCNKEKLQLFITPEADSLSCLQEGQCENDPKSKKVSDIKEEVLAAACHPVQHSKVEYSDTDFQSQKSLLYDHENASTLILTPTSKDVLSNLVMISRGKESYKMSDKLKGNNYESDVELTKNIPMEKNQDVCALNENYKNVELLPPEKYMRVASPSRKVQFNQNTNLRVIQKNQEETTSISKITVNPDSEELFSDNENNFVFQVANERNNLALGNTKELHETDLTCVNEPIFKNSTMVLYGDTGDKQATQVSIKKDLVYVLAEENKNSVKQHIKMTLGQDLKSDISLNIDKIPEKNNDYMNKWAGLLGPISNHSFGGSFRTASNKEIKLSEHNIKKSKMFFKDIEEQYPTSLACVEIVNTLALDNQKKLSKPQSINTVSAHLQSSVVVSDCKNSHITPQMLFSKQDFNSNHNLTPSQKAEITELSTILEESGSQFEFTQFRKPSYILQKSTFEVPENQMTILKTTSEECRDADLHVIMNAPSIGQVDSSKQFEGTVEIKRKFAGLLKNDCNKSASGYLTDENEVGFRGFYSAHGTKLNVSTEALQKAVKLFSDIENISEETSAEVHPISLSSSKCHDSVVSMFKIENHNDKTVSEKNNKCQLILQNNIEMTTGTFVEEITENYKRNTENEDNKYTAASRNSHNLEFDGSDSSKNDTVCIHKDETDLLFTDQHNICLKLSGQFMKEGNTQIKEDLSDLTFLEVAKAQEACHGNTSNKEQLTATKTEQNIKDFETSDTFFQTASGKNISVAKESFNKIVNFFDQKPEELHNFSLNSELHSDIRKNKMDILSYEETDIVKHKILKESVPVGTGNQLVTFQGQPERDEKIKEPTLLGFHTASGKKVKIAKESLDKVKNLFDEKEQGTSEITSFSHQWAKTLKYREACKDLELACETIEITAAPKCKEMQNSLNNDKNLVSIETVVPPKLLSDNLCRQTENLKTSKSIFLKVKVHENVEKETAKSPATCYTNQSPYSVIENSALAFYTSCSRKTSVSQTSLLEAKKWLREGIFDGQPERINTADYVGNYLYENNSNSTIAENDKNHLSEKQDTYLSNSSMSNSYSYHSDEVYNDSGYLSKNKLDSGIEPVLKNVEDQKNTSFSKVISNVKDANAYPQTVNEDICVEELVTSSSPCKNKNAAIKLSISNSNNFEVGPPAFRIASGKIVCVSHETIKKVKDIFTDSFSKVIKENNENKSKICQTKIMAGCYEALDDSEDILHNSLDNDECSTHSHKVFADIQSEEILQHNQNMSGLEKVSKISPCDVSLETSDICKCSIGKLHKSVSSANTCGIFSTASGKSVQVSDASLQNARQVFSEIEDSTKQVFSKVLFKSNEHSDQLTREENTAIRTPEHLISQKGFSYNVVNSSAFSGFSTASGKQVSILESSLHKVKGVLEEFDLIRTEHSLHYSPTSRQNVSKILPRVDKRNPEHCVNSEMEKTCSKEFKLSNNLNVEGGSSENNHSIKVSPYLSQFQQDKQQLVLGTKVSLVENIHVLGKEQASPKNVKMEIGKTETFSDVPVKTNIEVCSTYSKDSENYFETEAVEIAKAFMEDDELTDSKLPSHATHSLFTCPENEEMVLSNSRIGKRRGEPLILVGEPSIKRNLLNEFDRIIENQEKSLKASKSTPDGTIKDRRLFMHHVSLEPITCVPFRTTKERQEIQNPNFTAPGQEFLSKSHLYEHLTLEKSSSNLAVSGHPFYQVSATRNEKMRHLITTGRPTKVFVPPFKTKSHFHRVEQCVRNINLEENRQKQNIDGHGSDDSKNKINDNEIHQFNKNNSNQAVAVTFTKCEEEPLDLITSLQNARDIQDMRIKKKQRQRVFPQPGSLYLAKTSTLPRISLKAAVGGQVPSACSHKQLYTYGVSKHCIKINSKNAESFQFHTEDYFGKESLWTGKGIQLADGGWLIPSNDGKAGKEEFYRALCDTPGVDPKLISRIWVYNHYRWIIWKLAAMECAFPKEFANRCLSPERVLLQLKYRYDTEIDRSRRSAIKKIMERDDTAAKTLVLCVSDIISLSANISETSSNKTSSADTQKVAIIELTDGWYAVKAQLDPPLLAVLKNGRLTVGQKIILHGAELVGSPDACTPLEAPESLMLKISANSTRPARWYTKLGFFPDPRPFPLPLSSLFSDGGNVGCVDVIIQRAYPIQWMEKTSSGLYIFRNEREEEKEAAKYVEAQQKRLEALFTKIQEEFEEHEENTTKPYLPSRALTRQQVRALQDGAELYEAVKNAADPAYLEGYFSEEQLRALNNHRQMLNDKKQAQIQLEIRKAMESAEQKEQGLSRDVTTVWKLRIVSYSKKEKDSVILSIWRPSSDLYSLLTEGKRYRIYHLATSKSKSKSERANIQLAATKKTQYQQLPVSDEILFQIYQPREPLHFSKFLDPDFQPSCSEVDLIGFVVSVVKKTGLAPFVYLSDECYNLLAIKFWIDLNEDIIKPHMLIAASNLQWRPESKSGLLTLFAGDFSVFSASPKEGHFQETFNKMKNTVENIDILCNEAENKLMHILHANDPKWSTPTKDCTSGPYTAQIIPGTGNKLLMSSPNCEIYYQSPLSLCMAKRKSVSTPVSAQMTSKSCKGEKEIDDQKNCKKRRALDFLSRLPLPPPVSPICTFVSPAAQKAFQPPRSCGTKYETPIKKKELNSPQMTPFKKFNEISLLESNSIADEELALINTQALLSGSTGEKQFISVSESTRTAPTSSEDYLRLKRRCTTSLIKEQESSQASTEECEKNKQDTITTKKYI

B1: 5' tailed DNA (RJ-5'TAIL-167-mer/RJ-PHIX-42-1) (mixed)
DNA 1: ATTTATTCTATTCCCTTTATTTTCTCTGTTTATTCATTTACTTATTTTGTATTAATTTCCTATATTTTTTACTTGTATTTCTTATTCATTTACTTATTTTGTATTATCCTTATTTATATCCTTTCTGCTTTATCAAGATAATTTTTCGACTCATCAGAAATATCCG
DNA 2: CGGATATTTCTGATGAGTCGAAAAATTATCTTGATAAAGCAG
B1: binds ([1]; label: 5'-32P on 167-mer (EMSA), 42 bp duplex with 5' ssDNA overhang).

B2: RJ-167-mer ssDNA (ssDNA)
DNA: CTGCTTTATCAAGATAATTTTTCGACTCATCAGAAATATCCGTTTCCTATATTTATTCCTATTATGTTTTATTCATTTACTTATTCTTTATGTTCATTTTTTATATCCTTTACTTTATTTTCTCTGTTTATTCATTTACTTATTTTGTATTATCCTTATCTTATTTA
B2: binds ([1]; label: 5'-32P (EMSA)).

B3: 3' tailed DNA (RJ-167-mer/RJ-PHIX-42-1) (mixed)
DNA 1: CTGCTTTATCAAGATAATTTTTCGACTCATCAGAAATATCCGTTTCCTATATTTATTCCTATTATGTTTTATTCATTTACTTATTCTTTATGTTCATTTTTTATATCCTTTACTTTATTTTCTCTGTTTATTCATTTACTTATTTTGTATTATCCTTATCTTATTTA
DNA 2: CGGATATTTCTGATGAGTCGAAAAATTATCTTGATAAAGCAG
B3: binds [2].
